Tested on: human HL60 cells
Assay: SWATH-MS proteomics, differential protein representation, akirin2 KO vs WT HL60 cells
Type: cell-based
Conditions: akirin2 KO vs WT HL60 cells; sheet "Under-represented in KO"
Method in brief: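 Three biological replicates per genotype; 150 µg protein FASP/trypsin digested; IDA library (3 µg digest); SWATH variable windows, 5 µg/sample, 3.6 s cycle; gradient 5–30% B 120 min then 30–60% B 15 min; 1% global FDR; TAS normalization.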

B1: sp¦Q8IX12¦CCAR1_HUMAN (protein, UniProt Q8IX12 1-1150, looked up)
Cell division cycle and …: MAQFGGQKNPPWATQFTATAVSQPAALGVQQPSLLGASPTIYTQQTALAAAGLTTQTPANYQLTQTAALQQQAAAAAAALQQQYSQPQQALYSVQQQLQQPQQTLLTQPAVALPTSLSLSTPQPTAQITVSYPTPRSSQQQTQPQKQRVFTGVVTKLHDTFGFVDEDVFFQLSAVKGKTPQVGDRVLVEATYNPNMPFKWNAQRIQTLPNQNQSQTQPLLKTPPAVLQPIAPQTTFGVQTQPQPQSLLQAQISAASITPLLQTQPQPLLQQPQQKAGLLQPPVRIVSQPQPARRLDPPSRFSGRNDRGDQVPNRKDDRSRERERERRRSRERSPQRKRSRERSPRRERERSPRRVRRVVPRYTVQFSKFSLDCPSCDMMELRRRYQNLYIPSDFFDAQFTWVDAFPLSRPFQLGNYCNFYVMHREVESLEKNMAILDPPDADHLYSAKVMLMASPSMEDLYHKSCALAEDPQELRDGFQHPARLVKFLVGMKGKDEAMAIGGHWSPSLDGPDPEKDPSVLIKTAIRCCKALTGIDLSVCTQWYRFAEIRYHRPEETHKGRTVPAHVETVVLFFPDVWHCLPTRSEWETLSRGYKQQLVEKLQGERKEADGEQDEEEKDDGEAKEISTPTHWSKLDPKTMKVNDLRKELESRALSSKGLKSQLIARLTKQLKVEEQKEEQKELEKSEKEEDEDDDRKSEDDKEEEERKRQEEIERQRRERRYILPDEPAIIVHPNWAAKSGKFDCSIMSLSVLLDYRLEDNKEHSFEVSLFAELFNEMLQRDFGVRIYKSLLSLPEKEDKKEKDKKSKKDERKDKKEERDDETDEPKPKRRKSGDDKDKKEDRDERKKEDKRKDDSKDDDETEEDNNQDEYDPMEAEEAEDEEDDRDEEEMTKRDDKRDINRYCKERPSKDKEKEKTQMITINRDLLMAFVYFDQSHCGYLLEKDLEEILYTLGLHLSRAQVKKLLNKVVLRESCFYRKLTDTSKDEENHEESESLQEDMLGNRLLLPTPTVKQESKDVEENVGLIVYNGAMVDVGSLLQKLEKSEKVRAEVEQKLQLLEEKTDEDEKTILNLENSNKSLSGELREVKKDLSQLQENLKISENMNLQFENQMNKTIRNLSTVMDEIHTVLKKDNVKNEDKDQKSKENGASV
- Fold Change: 0.4166
- Log (Fold Change): -0.3803

B2: sp¦Q9BUQ8¦DDX23_HUMAN (protein, UniProt Q9BUQ8 1-820, looked up)
Probable ATP-dependent RNA …: MAGELADKKDRDASPSKEERKRSRTPDRERDRDRDRKSSPSKDRKRHRSRDRRRGGSRSRSRSRSKSAERERRHKERERDKERDRNKKDRDRDKDGHRRDKDRKRSSLSPGRGKDFKSRKDRDSKKDEEDEHGDKKPKAQPLSLEELLAKKKAEEEAEAKPKFLSKAEREAEALKRRQQEVEERQRMLEEERKKRKQFQDLGRKMLEDPQERERRERRERMERETNGNEDEEGRQKIREEKDKSKELHAIKERYLGGIKKRRRTRHLNDRKFVFEWDASEDTSIDYNPLYKERHQVQLLGRGFIAGIDLKQQKREQSRFYGDLMEKRRTLEEKEQEEARLRKLRKKEAKQRWDDRHWSQKKLDEMTDRDWRIFREDYSITTKGGKIPNPIRSWKDSSLPPHILEVIDKCGYKEPTPIQRQAIPIGLQNRDIIGVAETGSGKTAAFLIPLLVWITTLPKIDRIEESDQGPYAIILAPTRELAQQIEEETIKFGKPLGIRTVAVIGGISREDQGFRLRMGCEIVIATPGRLIDVLENRYLVLSRCTYVVLDEADRMIDMGFEPDVQKILEHMPVSNQKPDTDEAEDPEKMLANFESGKHKYRQTVMFTATMPPAVERLARSYLRRPAVVYIGSAGKPHERVEQKVFLMSESEKRKKLLAILEQGFDPPIIIFVNQKKGCDVLAKSLEKMGYNACTLHGGKGQEQREFALSNLKAGAKDILVATDVAGRGIDIQDVSMVVNYDMAKNIEDYIHRIGRTGRAGKSGVAITFLTKEDSAVFYELKQAILESPVSSCPPELANHPDAQHKPGTILTKKRREETIFA
- Fold Change: 0.4207
- Log (Fold Change): -0.376
